Experiments:
Assay in all cases: ELISA; receptor in solution, complex captured on BMP-7 GF mAb
[1] = target: BMP-7 complex containing biotinylated prodomain (prodomain biotinylated through amines, reconstituted with … (human, UniProt P18075 293-431, biotin through amines (EZ-Link NHS-PEG4-Biotin)))
[2] = target: BMP-7 complex containing biotinylated GF (mature BMP-7 biotinylated through the glycan, reconstituted with … (human, UniProt P18075 293-431, biotin through the sugars (sodium metaperiodate, hydrazide PEG4 Biotin)))
[3] = target: unbiotinylated BMP-7 complex (bone morphogenetic protein 7 mature domain/prodomain soluble complex) (human, UniProt P18075 293-431)
Chain of unbiotinylated BMP-7 complex (bone morphogenetic protein 7 mature domain/prodomain soluble complex) (P18075 30-292, chain 1 of 2): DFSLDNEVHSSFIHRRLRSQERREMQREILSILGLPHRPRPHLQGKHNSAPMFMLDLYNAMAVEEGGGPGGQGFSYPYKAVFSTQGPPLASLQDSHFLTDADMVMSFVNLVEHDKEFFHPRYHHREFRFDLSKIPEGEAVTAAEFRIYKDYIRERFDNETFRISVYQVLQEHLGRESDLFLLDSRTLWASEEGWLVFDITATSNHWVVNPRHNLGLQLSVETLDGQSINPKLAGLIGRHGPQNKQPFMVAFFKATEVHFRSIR
Chain of unbiotinylated BMP-7 complex (bone morphogenetic protein 7 mature domain/prodomain soluble complex) (P18075 293-431, chain 2 of 2): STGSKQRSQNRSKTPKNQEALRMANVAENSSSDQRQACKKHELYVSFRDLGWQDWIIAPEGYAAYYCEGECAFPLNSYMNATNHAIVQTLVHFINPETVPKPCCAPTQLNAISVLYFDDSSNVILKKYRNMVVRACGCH

Chain of BMP-7 complex containing biotinylated prodomain (prodomain biotinylated through amines, reconstituted with … (P18075 30-292, chain 1 of 2): as the sequence (P18075 30-292, chain 1 of 2) above
Chain of BMP-7 complex containing biotinylated prodomain (prodomain biotinylated through amines, reconstituted with … (P18075 293-431, chain 2 of 2): as the sequence (P18075 293-431, chain 2 of 2) above
Chain of BMP-7 complex containing biotinylated GF (mature BMP-7 biotinylated through the glycan, reconstituted with … (P18075 30-292, chain 1 of 2): as the sequence (P18075 30-292, chain 1 of 2) above
Chain of BMP-7 complex containing biotinylated GF (mature BMP-7 biotinylated through the glycan, reconstituted with … (P18075 293-431, chain 2 of 2): as the sequence (P18075 293-431, chain 2 of 2) above

B1: BMPR2-Fc (bone morphogenetic protein receptor type-2 fused to Fc) (Fc fusion)
chain: SQNQERLCAFKDPYQQDLGIGESRISHENGTILCSKGSTCYGLWEKSKGDINLVKQGCWSHIGDPQECHYEECVVTTTPPSIQNGTYRFCCCSTDLCNVNFTENFPPPDTTPLSPPHSFNRDET
With B1 as the binder, how does the Kd [1] read?
Its Kd is 19 nM.

What about the Kd [2] of the same binder?
The Kd was 8.7 nM.

What about the Kd [3] of the same binder?
Its Kd is 11.9 nM.

Reference: paper PMC8801479 (2021)
